Test results from paper PMC6494836, “Mechanism-based tuning of insect 3,4-dihydroxyphenylacetaldehyde synthase for synthetic bioproduction of benzylisoquinoline alkaloids” (Nature Communications, 2019).

System: N[C@@H](Cc1ccc(O)c(O)c1)C(=O)O
Assay: fluorometric H2O2 production assay (peroxidase-coupled)
Format: biochemical, Bombyx mori
Conditions: O2 co-substrate; PBS; PLP cofactor; aldehyde synthase (H2O2-producing) activity; parentheses are 95% confidence interval
Description: fluorometric H2O2 production assay (peroxidase-coupled) on B. mori DHPAAS

Substance	Km	kcat
B. mori DHPAAS (Bombyx mori; F79Y/N192H/Y80F)	27.6 (17.1–42.8) µM	0.97 (0.87–1.09) min^−1
B. mori DHPAAS (Bombyx mori)	41.7 (36.6–47.3) µM	6.51 (6.27–6.76) min^−1
B. mori DHPAAS (Bombyx mori; F79Y/Y80F)	62.3 (49.5–78.5) µM	4.65 (4.30–5.03) min^−1
B. mori DHPAAS (Bombyx mori; N192H)	36.5 (32.8–40.5) µM	1.40 (1.35–1.44) min^−1
